{"source": "patent US20230364254A1", "about": "“METHODS FOR TREATING CANCERS WITH ANTIBODY DRUG CONJUGATES (ADC) THAT BIND TO 191P4D12 PROTEINS” (priority 2020, published 2023)", "tested_on": "patients with locally advanced or metastatic urothelial cancer", "experiment": "Same phase 2 study: safety (adverse events, NCI CTCAE v4.03)", "type": "in vivo, human", "settings": "Cohort 2 (N = 89)", "source_text": "Safety assessments will be based on the information collected through the safety surveillance process and will include the data from recorded adverse events (AEs) including SAEs, recording of concomitant medication, physical examination findings, cardiac monitoring, and laboratory tests.\nThe assessment of safety during the course of this study will consist of the surveillance and recording of AEs including SAEs, recording of concomitant medication, and measurements of protocol-specified physical examination findings, cardiac monitoring, and laboratory tests.\nAE severity should be graded using the National Cancer Institute's Common Terminology Criteria for Adverse Events (NCI CTCAE), Version 4.03. These criteria are provided in the study manual.\nAn overview of AEs will provide a tabulation of the incidence of all AEs, treatment-emergent AEs, treatment-related AEs, Grade 3 and higher AEs. SAEs, treatment-related SAEs, deaths, and AEs leading to study treatment discontinuation. Adverse events will be defined as treatment emergent if they are newly occurring or worsened following study treatment.\nAEs will be classified by system organ class and preferred tem using the Medical Dictionary for Regulatory Activities (MedDRA) and graded using NCI CTCAE, Version 4.03.\nThe incidence of AEs will be summarized by system organ class, preferred term, severity and relationship to study drug. In the event of multiple occurrences of the same AE in one patient, the AE will be counted once as the occurrence for the maximum grade. AEs leading to premature discontinuation of study drug will be summarized and listed in the same manner."}
{"substance": "enfortumab vedotin: Nectin-4 directed ADC: fully human anti-nectin-4 IgG1 kappa antibody (AGS-22C3) conjugated to MMAE via protease-cleavable maleimidocaproyl valine-citrulline linker", "values": [{"measurement": "AE of special interest, All Grade: Ocular Events, Blurred Vision", "result": "9 (10.1) N (%)"}, {"measurement": "AE of special interest, All Grade: Ocular Events, Corneal Disorders", "result": "5 (5.6) N (%)"}, {"measurement": "AE of special interest, All Grade: Ocular Events, Dry Eye Disorders", "result": "27 (30.3) N (%)"}, {"measurement": "AE of special interest, All Grade: Peripheral Neuropathy", "result": "51 (58.4) N (%)"}, {"measurement": "AE of special interest, All Grade: Rash", "result": "59 (66.3) N (%)"}, {"measurement": "AE of special interest, ≥Gr 3: Hyperglycemia", "result": "8 (9) N (%)"}, {"measurement": "AE of special interest, ≥Gr 3: IRR", "result": "1 (1.1) N (%)"}, {"measurement": "AE of special interest, ≥Gr 3: Peripheral Neuropathy", "result": "7 (7.9) N (%)"}, {"measurement": "AE of special interest, ≥Gr 3: Rash", "result": "15 (16.9) N (%)"}, {"measurement": "Any TEAEs", "result": "89 (100.0) n (%)"}, {"measurement": "Any TEAEs leading to death", "result": "8 (9.0) n (%)"}, {"measurement": "Any TEAEs leading to treatment discontinuation", "result": "18 (20.2) n (%)"}, {"measurement": "Any grade 3-5 TEAEs", "result": "62 (69.7) n (%)"}, {"measurement": "Any serious TEAEs", "result": "35 (39.3) n (%)"}, {"measurement": "SAEs (All): Acute kidney injury", "result": "9 (10.1) n (%)"}, {"measurement": "SAEs (All): Diarrhoea", "result": "3 (3.4) n (%)"}, {"measurement": "SAEs (All): Febrile neutropenia", "result": "1 (1.1) n (%)"}, {"measurement": "SAEs (All): Nausea", "result": "2 (2.2) n (%)"}, {"measurement": "SAEs (All): Overall", "result": "35 (39.3) n (%)"}, {"measurement": "SAEs (All): Pneumonia", "result": "3 (3.4) n (%)"}, {"measurement": "SAEs (All): Sepsis", "result": "4 (4.5) n (%)"}, {"measurement": "SAEs (All): Urinary tract infection", "result": "3 (3.4) n (%)"}, {"measurement": "SAEs (Related): Acute kidney injury", "result": "3 (3.4) n (%)"}, {"measurement": "SAEs (Related): Diarrhoea", "result": "2 (2.2) n (%)"}, {"measurement": "SAEs (Related): Febrile neutropenia", "result": "1 (1.1) n (%)"}, {"measurement": "SAEs (Related): Nausea", "result": "1 (1.1) n (%)"}, {"measurement": "SAEs (Related): Overall", "result": "15 (16.9) n (%)"}, {"measurement": "SAEs (Related): Pneumonia", "result": "1 (1.1) n (%)"}, {"measurement": "Treatment-related AE leading to discontinuation: Acute kidney injury", "result": "2 (2.2) n (%)"}, {"measurement": "Treatment-related AE leading to discontinuation: Dermatitis bullous", "result": "1 (1.1) n (%)"}, {"measurement": "Treatment-related AE leading to discontinuation: Lipase increased", "result": "2 (2.2) n (%)"}, {"measurement": "Treatment-related AE leading to discontinuation: Metabolic acidosis", "result": "1 (1.1) n (%)"}, {"measurement": "Treatment-related AE leading to discontinuation: Multiple organ dysfunction syndrome", "result": "1 (1.1) n (%)"}, {"measurement": "Treatment-related AE leading to discontinuation: Muscular weakness", "result": "1 (1.1) n (%)"}, {"measurement": "Treatment-related AE leading to discontinuation: Overall", "result": "14 (15.7) n (%)"}, {"measurement": "Treatment-related AE leading to discontinuation: Peripheral motor neuropathy", "result": "1 (1.1) n (%)"}, {"measurement": "Treatment-related AE leading to discontinuation: Peripheral sensory neuropathy", "result": "4 (4.5) n (%)"}, {"measurement": "Treatment-related AE leading to discontinuation: Pneumonitis", "result": "1 (1.1) n (%)"}, {"measurement": "Treatment-related TEAEs", "result": "86 (96.6) n (%)"}, {"measurement": "Treatment-related TEAEs (all grades): Alopecia", "result": "45 (50.6) n (%)"}, {"measurement": "Treatment-related TEAEs (all grades): Anaemia", "result": "22 (24.7) n (%)"}, {"measurement": "Treatment-related TEAEs (all grades): Aspartate aminotransferase increased", "result": "7 (7.9) n (%)"}, {"measurement": "Treatment-related TEAEs (all grades): Decreased appetite", "result": "29 (32.6) n (%)"}, {"measurement": "Treatment-related TEAEs (all grades): Diarrhoea", "result": "20 (22.5) n (%)"}, {"measurement": "Treatment-related TEAEs (all grades): Dry eye", "result": "11 (12.4) n (%)"}, {"measurement": "Treatment-related TEAEs (all grades): Dry skin", "result": "16 (18.0) n (%)"}, {"measurement": "Treatment-related TEAEs (all grades): Dysgeusia", "result": "24 (27.0) n (%)"}, {"measurement": "Treatment-related TEAEs (all grades): Fatigue", "result": "30 (33.7) n (%)"}, {"measurement": "Treatment-related TEAEs (all grades): Lacrimation increased", "result": "9 (10.1) n (%)"}, {"measurement": "Treatment-related TEAEs (all grades): Nausea", "result": "20 (22.5) n (%)"}, {"measurement": "Treatment-related TEAEs (all grades): Neutropenia", "result": "11 (12.4) n (%)"}, {"measurement": "Treatment-related TEAEs (all grades): Oedema peripheral", "result": "10 (11.2) n (%)"}, {"measurement": "Treatment-related TEAEs (all grades): Overall", "result": "86 (96.6) n (%)"}, {"measurement": "Treatment-related TEAEs (all grades): Peripheral sensory neuropathy", "result": "42 (47.2) n (%)"}, {"measurement": "Treatment-related TEAEs (all grades): Pruritus", "result": "27 (30.3) n (%)"}, {"measurement": "Treatment-related TEAEs (all grades): Rash maculo-papular", "result": "27 (30.3) n (%)"}, {"measurement": "Treatment-related TEAEs (all grades): Vomiting", "result": "7 (7.9) n (%)"}, {"measurement": "Treatment-related TEAEs (all grades): Weight decreased", "result": "23 (25.8) n (%)"}, {"measurement": "Treatment-related TEAEs leading to death", "result": "3 (3.4) n (%)"}, {"measurement": "Treatment-related TEAEs leading to treatment discontinuation", "result": "14 (15.7) n (%)"}, {"measurement": "Treatment-related TEAEs ≥Grade 3: Acute kidney injury", "result": "4 (4.5) n (%)"}, {"measurement": "Treatment-related TEAEs ≥Grade 3: Amylase increased", "result": "3 (3.4) n (%)"}, {"measurement": "Treatment-related TEAEs ≥Grade 3: Anaemia", "result": "5 (5.6) n (%)"}, {"measurement": "Treatment-related TEAEs ≥Grade 3: Aspartate aminotransferase increased", "result": "2 (2.2) n (%)"}, {"measurement": "Treatment-related TEAEs ≥Grade 3: Decreased appetite", "result": "5 (5.6) n (%)"}, {"measurement": "Treatment-related TEAEs ≥Grade 3: Diarrhoea", "result": "5 (5.6) n (%)"}, {"measurement": "Treatment-related TEAEs ≥Grade 3: Fatigue", "result": "6 (6.7) n (%)"}, {"measurement": "Treatment-related TEAEs ≥Grade 3: Febrile neutropenia", "result": "1 (1.1) n (%)"}, {"measurement": "Treatment-related TEAEs ≥Grade 3: Hyperglycaemia", "result": "5 (5.6) n (%)"}, {"measurement": "Treatment-related TEAEs ≥Grade 3: Hyponatraemia", "result": "3 (3.4) n (%)"}, {"measurement": "Treatment-related TEAEs ≥Grade 3: Lipase increased", "result": "5 (5.6) n (%)"}, {"measurement": "Treatment-related TEAEs ≥Grade 3: Neutropenia", "result": "8 (9.0) n (%)"}, {"measurement": "Treatment-related TEAEs ≥Grade 3: Neutrophil count decreased", "result": "3 (3.4) n (%)"}, {"measurement": "Treatment-related TEAEs ≥Grade 3: Overall", "result": "49 (55.1) n (%)"}, {"measurement": "Treatment-related TEAEs ≥Grade 3: Peripheral sensory neuropathy", "result": "3 (3.4) n (%)"}, {"measurement": "Treatment-related TEAEs ≥Grade 3: Pruritus", "result": "3 (3.4) n (%)"}, {"measurement": "Treatment-related TEAEs ≥Grade 3: Rash erythematous", "result": "2 (2.2) n (%)"}, {"measurement": "Treatment-related TEAEs ≥Grade 3: Rash maculo-papular", "result": "7 (7.9) n (%)"}, {"measurement": "Treatment-related grade 3-5 TEAEs", "result": "49 (55.1) n (%)"}, {"measurement": "Treatment-related serious TEAEs", "result": "15 (16.9) n (%)"}, {"measurement": "TRAEs, Any Grade: Alopecia", "setting": "additional 3 months follow-up", "result": "45 (51) n (%)"}, {"measurement": "TRAEs, Any Grade: Anemia", "setting": "additional 3 months follow-up", "result": "22 (25) n (%)"}, {"measurement": "TRAEs, Any Grade: Decreased appetite", "setting": "additional 3 months follow-up", "result": "29 (33) n (%)"}, {"measurement": "TRAEs, Any Grade: Diarrhea", "setting": "additional 3 months follow-up", "result": "20 (22) n (%)"}, {"measurement": "TRAEs, Any Grade: Dysgeusia", "setting": "additional 3 months follow-up", "result": "25 (28) n (%)"}, {"measurement": "TRAEs, Any Grade: Fatigue", "setting": "additional 3 months follow-up", "result": "30 (34) n (%)"}, {"measurement": "TRAEs, Any Grade: Hyperglycemia", "setting": "additional 3 months follow-up", "result": "8 (9) n (%)"}, {"measurement": "TRAEs, Any Grade: Lipase increased", "setting": "additional 3 months follow-up", "result": "7 (8) n (%)"}, {"measurement": "TRAEs, Any Grade: Nausea", "setting": "additional 3 months follow-up", "result": "20 (22) n (%)"}]}
